From PMC11119335

B1: OsNR2 GCCGAC competitor, 29 bp (dsDNA)
DNA 1: CAGGAGCTCGATGTAGCCGACCTCGTCGA
DNA 2: TCGACGAGGTCGGCTACATCGAGCTCCTG
B2: ACCGAC competitor, 29 bp (dsDNA)
DNA 1: CAGGAGCTCGATGTAACCGACCTCGTCGA
DNA 2: TCGACGAGGTCGGTTACATCGAGCTCCTG
B3: OsNR2 GCCGAC probe, 29 bp (dsDNA)
DNA 1: CAGGAGCTCGATGTAGCCGACCTCGTCGA
DNA 2: TCGACGAGGTCGGCTACATCGAGCTCCTG
B4: ACCGAC probe, 29 bp (dsDNA)
DNA 1: CAGGAGCTCGATGTAACCGACCTCGTCGA
DNA 2: TCGACGAGGTCGGTTACATCGAGCTCCTG

Tests used:
[1] = molecular target: OsDREB1C-m2 (R12K) (Oryza sativa, UniProt Q9LWV3 1-214, R45K); test: competition
[2] = molecular target: T1, OsDREB1C (WT) (Oryza sativa, UniProt Q9LWV3 1-214); test: competition
[3] = molecular target: T2, AtCBF1 (Arabidopsis thaliana, UniProt P93835 1-213); test: competition
T2 sequence (P93835 whole entry): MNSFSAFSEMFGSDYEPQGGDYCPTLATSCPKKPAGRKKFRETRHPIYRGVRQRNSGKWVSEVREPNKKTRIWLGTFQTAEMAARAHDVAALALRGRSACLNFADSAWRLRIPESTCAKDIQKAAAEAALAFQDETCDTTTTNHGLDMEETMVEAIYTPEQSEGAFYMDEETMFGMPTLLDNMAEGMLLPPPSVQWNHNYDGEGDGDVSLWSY

[4] = molecular target: OsDREB1C-m1 (A10_) (Oryza sativa, UniProt Q9LWV3 1-214, del43-43); test: EMSA
[5] = molecular target: T1, OsDREB1C (WT); test: EMSA
[6] = molecular target: T2, AtCBF1; test: EMSA

Row | Binder | binding result [1] | binding result [3] | other results
1 | B1 | binds | binds | binding result [2]: binds
2 | B2 | binds | binds | 
3 | B3 |  |  | binding result [4]: binds; binding result [5]: binds
4 | B4 |  |  | binding result [6]: binds
